From the supplement of paper PMC10567573

B1: TMEM106C (parent)
chain: YVTTNVSLIPPRSEQLVNFTGKAE

Variants of: B1
Test: protein stability index of a GFP-peptide fusion (GPS, HEK-293T) (PSI 1-6); higher = more stable
Settings: c terminus: a fixed tail appended
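Also: lentivirally expressed fusions sorted by FACS into six bins by GFP to DsRed ratio, PSI derived from sequencing read proportions per bin multiplied by bin number.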

First: YVTTNVSLIPPTSEQLVNFTGKAE
Second: YVTTNVSLIPPMSEQLVNFTGKAE
The protein stability index of the first is lower: 2.09 for the first, 2.14 for the second.

Compared with YVTTNVSLIPPKSEQLVNFTGKAE, YVTTNVSLIPPLSEQLVNFTGKAE is lower in protein stability index: 1.9 for the first, 1.48 for the second.

Compared with YVTTNVSLIPPQSEQLVNFTGKAE, YVTTNVSLIPPWSEQLVNFTGKAE is higher in protein stability index: 2.1 for the first, 2.19 for the second.

Compared with YVTTNVSLIPPGSEQLVNFTGKAE, YVTTNVSLIPPVSEQLVNFTGKAE is lower in protein stability index: 2.49 for the first, 2.08 for the second.

Going from YVTTNVSLIPPHSEQLVNFTGKAE to YVTTNVSLIPPYSEQLVNFTGKAE, the protein stability index rises from 1.85 to 2.39.

Compared with YVTTNVSLIPPPSEQLVNFTGKAE, YVTTNVSLIPPISEQLVNFTGKAE is lower in protein stability index: 1.86 for the first, 1.78 for the second.

First: YVTTNVSLIPPFSEQLVNFTGKAE
Second: YVTTNVSLIPPSSEQLVNFTGKAE
The protein stability index of the first is higher: 2.75 for the first, 2.23 for the second.

Compared with YVTTNVSLIPPNSEQLVNFTGKAE, YVTTNVSLIPPRFEQLVNFTGKAE is higher in protein stability index: 1.83 for the first, 2.56 for the second.

Going from YVTTNVSLIPPRYEQLVNFTGKAE to YVTTNVSLIPPRPEQLVNFTGKAE, the protein stability index falls from 2.2 to 1.64.

Going from YVTTNVSLIPPRNEQLVNFTGKAE to YVTTNVSLIPPRWEQLVNFTGKAE, the protein stability index falls from 2.32 to 1.18.

Going from YVTTNVSLIPPRDEQLVNFTGKAE to YVTTNVSLIPPREEQLVNFTGKAE, the protein stability index rises from 1.57 to 1.88.

Compared with YVTTNVSLIPPRLEQLVNFTGKAE, YVTTNVSLIPPRQEQLVNFTGKAE is lower in protein stability index: 2.32 for the first, 1.72 for the second.

Compared with YVTTNVSLIPPRKEQLVNFTGKAE, YVTTNVSLIPPRVEQLVNFTGKAE is higher in protein stability index: 1.55 for the first, 2.07 for the second.

Compared with YVTTNVSLIPPRHEQLVNFTGKAE, YVTTNVSLIPPRMEQLVNFTGKAE is lower in protein stability index: 2.34 for the first, 2 for the second.

First: YVTTNVSLIPPRTEQLVNFTGKAE
Second: YVTTNVSLIPPRGEQLVNFTGKAE
The protein stability index of the first is lower: 1.74 for the first, 1.86 for the second.

Compared with YVTTNVSLIPPRIEQLVNFTGKAE, YVTTNVSLIPPRREQLVNFTGKAE is higher in protein stability index: 1.62 for the first, 1.86 for the second.

Going from YVTTNVSLIPPRCEQLVNFTGKAE to YVTTNVSLIPPRAEQLVNFTGKAE, the protein stability index falls from 2.24 to 2.22.

Compared with YVTTNVSLIPPRSEQLVNFTGEAE, YVTTNVSLIPPRSEQLVNFTGAAE is higher in protein stability index: 1.78 for the first, 2.23 for the second.

Compared with YVTTNVSLIPPRSEQLVNFTGCAE, YVTTNVSLIPPRSEQLVNFTGDAE is lower in protein stability index: 2.1 for the first, 2.08 for the second.

Going from YVTTNVSLIPPRSEQSVNFTGKAE to YVTTNVSLIPPRSEQEVNFTGKAE, the protein stability index rises from 1.91 to 2.1.

First: YVTTNVSLIPPRSEQGVNFTGKAE
Second: YVTTNVSLIPPRSEQTVNFTGKAE
The protein stability index of the first is higher: 1.81 for the first, 1.79 for the second.

First: YVTTNVSLIPPRSEQAVNFTGKAE
Second: YVTTNVSLIPPRSEQYVNFTGKAE
The protein stability index of the first is higher: 2.14 for the first, 1.73 for the second.

First: YVTTNVSLIPPRSEQCVNFTGKAE
Second: YVTTNVSLIPPRSEQRVNFTGKAE
The protein stability index of the first is higher: 2.16 for the first, 1.95 for the second.

Going from YVTTNVSLIPPRSEQMVNFTGKAE to YVTTNVSLIPPRSEQIVNFTGKAE, the protein stability index rises from 2.02 to 2.23.

Compared with YVTTNVSLIPPRSEQHVNFTGKAE, YVTTNVSLIPPRSEQVVNFTGKAE is lower in protein stability index: 1.49 for the first, 1.34 for the second.

First: YVTTNVSLIPPRSEQKVNFTGKAE
Second: YVTTNVSLIPPRSEQDVNFTGKAE
The protein stability index of the first is lower: 1.9 for the first, 2.05 for the second.

Compared with YVTTNVSLIPPRSEQFVNFTGKAE, YVTTNVSLIPPRSEQQVNFTGKAE is higher in protein stability index: 1.88 for the first, 1.92 for the second.

Going from YVTTNVSLIPPRSEQWVNFTGKAE to YVTTNVSLIPPRSEQPVNFTGKAE, the protein stability index rises from 2.26 to 2.55.

Going from YVTTNVSLIPPRSEQNVNFTGKAE to YVTTNVSLIPPRSEQLVNPTGKAE, the protein stability index rises from 1.66 to 2.03.

Going from YVTTNVSLIPPRSEQLVNDTGKAE to YVTTNVSLIPPRSEQLVNATGKAE, the protein stability index rises from 2.01 to 2.03.

First: YVTTNVSLIPPRSEQLVNRTGKAE
Second: YVTTNVSLIPPRSEQLVNNTGKAE
The protein stability index of the first is lower: 1.68 for the first, 2 for the second.

First: YVTTNVSLIPPRSEQLVNSTGKAE
Second: YVTTNVSLIPPRSEQLVNTTGKAE
The protein stability index of the first is higher: 2.71 for the first, 2.65 for the second.

Compared with YVTTNVSLIPPRSEQLVNHTGKAE, YVTTNVSLIPPRSEQLVNVTGKAE is lower in protein stability index: 2.56 for the first, 2.28 for the second.

Going from YVTTNVSLIPPRSEQLVNCTGKAE to YVTTNVSLIPPRSEQLVNYTGKAE, the protein stability index falls from 2.06 to 1.9.

First: YVTTNVSLIPPRSEQLVNGTGKAE
Second: YVTTNVSLIPPRSEQLVNWTGKAE
The protein stability index of the first is lower: 1.39 for the first, 2.33 for the second.

Going from YVTTNVSLIPPRSEQLVNLTGKAE to YVTTNVSLIPPRSEQLVNITGKAE, the protein stability index rises from 1.96 to 2.02.

First: YVTTNVSLIPPRSEQLVNMTGKAE
Second: YVTTNVSLIPPRSEQLVNQTGKAE
The protein stability index of the first is lower: 1.9 for the first, 2.54 for the second.

Going from YVTTNVSLIPPRSEQLVNETGKAE to YVTTNVSLIPPRSEQLVNKTGKAE, the protein stability index falls from 2.7 to 2.25.

Compared with YVTTNVSLIPPRSEQLVRFTGKAE, YVTTNVSLIPPRSEQLVPFTGKAE is higher in protein stability index: 2.33 for the first, 2.4 for the second.

Going from YVTTNVSLIPPRSEQLVIFTGKAE to YVTTNVSLIPPRSEQLVQFTGKAE, the protein stability index falls from 3.13 to 2.07.

Going from YVTTNVSLIPPRSEQLVMFTGKAE to YVTTNVSLIPPRSEQLVEFTGKAE, the protein stability index falls from 2.37 to 1.3.

Compared with YVTTNVSLIPPRSEQLVHFTGKAE, YVTTNVSLIPPRSEQLVWFTGKAE is higher in protein stability index: 2.38 for the first, 3.06 for the second.

Going from YVTTNVSLIPPRSEQLVCFTGKAE to YVTTNVSLIPPRSEQLVKFTGKAE, the protein stability index rises from 1.95 to 2.71.

First: YVTTNVSLIPPRSEQLVLFTGKAE
Second: YVTTNVSLIPPRSEQLVSFTGKAE
The protein stability index of the first is lower: 2.14 for the first, 2.36 for the second.

Going from YVTTNVSLIPPRSEQLVTFTGKAE to YVTTNVSLIPPRSEQLVFFTGKAE, the protein stability index rises from 1.62 to 2.28.

Compared with YVTTNVSLIPPRSEQLVAFTGKAE, YVTTNVSLIPPRSEQLVDFTGKAE is higher in protein stability index: 2.02 for the first, 3.25 for the second.

Going from YVTTNVSLIPPRSEQLVGFTGKAE to YVTTNVSLIPPRSEQLVVFTGKAE, the protein stability index rises from 1.7 to 1.81.
